The source of these data is paper PMC6508626.

Holding throughout (experiment): co-IP
The target in test [1] is HA-tagged NS1 P319A (Dengue virus 2 (strain 16681)).
The target of test [2] is HA-tagged NS1 P320A (Dengue virus 2 (strain 16681)).
Test [3] concerns the target HA-tagged NS1 R62A (Dengue virus 2 (strain 16681)).
In test [4] the target is HA-tagged NS1 D197A (Dengue virus 2 (strain 16681)).
The target in test [5] is HA-tagged NS1 Y32A (Dengue virus 2 (strain 16681)).
In test [6] the target is HA-tagged NS1 W8A (Dengue virus 2 (strain 16681)).
Test [7] deals with HA-tagged NS1 R336A (Dengue virus 2 (strain 16681)).
The target of test [8] is HA-tagged NS1 S252A (Dengue virus 2 (strain 16681)).
In test [9] the target is HA-tagged NS1 T317A (Dengue virus 2 (strain 16681)).
The target in test [10] is HA-tagged NS1 W311A (Dengue virus 2 (strain 16681)).
The target of test [11] is HA-tagged NS1 Y158A (Dengue virus 2 (strain 16681)).
Test [12] concerns the target HA-tagged NS1 W168A (Dengue virus 2 (strain 16681)).
Test [13] deals with Carboxy-terminally HA-tagged wildtype NS1 from pTM_NS1_HA (Dengue virus 2 (strain 16681)) (UniProt P29990).
Test [14] concerns the target HA-tagged NS1 K189A (Dengue virus 2 (strain 16681)).
Test [15] deals with HA-tagged NS1 G161A (Dengue virus 2 (strain 16681)).
For test [16], the target named is HA-tagged NS1 E334A (Dengue virus 2 (strain 16681)).
For test [17], the target named is HA-tagged NS1 W150A (Dengue virus 2 (strain 16681)).
The target of test [18] is HA-tagged NS1 L153A (Dengue virus 2 (strain 16681)).
Test [19] has as its target HA-tagged NS1 D136A (Dengue virus 2 (strain 16681)).

In the case of “NS4A-2K-4B polyprotein from pTM_NS4A-2K-4B (natural protein)”, the NS1—NS4A-2K-4B interaction (fold of WT) in test [1] is 0.37 fold of WT; in test [2] it was 0.86 fold of WT; in [3], 3.97 fold of WT; in test [4] it was 4.09 fold of WT; in test [5], 0.31 fold of WT; in test [6] it was 0.99 fold of WT. Besides, the NS1—NS4A-2K-4B interaction (fold of WT) in [7] is 0.26 fold of WT; in [8], 3.18 fold of WT; in [9] it was 2.08 fold of WT; in [10], 0.31 fold of WT; in test [11], 3.01 fold of WT; in test [12], 0.02 fold of WT. Moreover, the NS1—NS4A-2K-4B interaction (fold of WT) in test [13] was 1 fold of WT; in test [14], 1.33 fold of WT; in test [15] it was 0.07 fold of WT; in test [16] it was 0.18 fold of WT; in test [17], 0.38 fold of WT; in test [18] it was 1.67 fold of WT. Besides, the NS1—NS4A-2K-4B interaction (fold of WT) in [19] was 0.21 fold of WT.
